Assay results: publication PMC3402478, “ADP Ribosylation by PARP-1 Suppresses HOXB7 Transcriptional Activity”

Columns and labels:
[1] = molecular target: PARP-1 (purified, Trevigen) (UniProt P09874 1-1014); test: EMSA; EMSA: 50 mM Tris-HCl pH 7.5, 50 mM NaCl, 1 mM MgCl2, 0.5 mM DTT, 4% glycerol, 0.5 mM EDTA, 0.25 mg/ml poly(dI-dC), 20 min, gel at room temperature; ONP: 60 mM KCl, 12 mM HEPES pH 7.9, 4 mM Tris-HCl, 5% glycerol, 0.5 mM EDTA, 1 mM DTT, 4 C, 3 h; settings: protein: commercial; label: 32P; blunt
GST-HOXB7 = GST-HOXB7 (UniProt P09629 1-217); test: EMSA; no PARP-1; competed by 100-fold unlabeled probe; EMSA: 50 mM Tris-HCl pH 7.5, 50 mM NaCl, 1 mM MgCl2, 0.5 mM DTT, 4% glycerol, 0.5 mM EDTA, 0.25 mg/ml poly(dI-dC), 20 min, gel at room temperature; ONP: 60 mM KCl, 12 mM HEPES pH 7.9, 4 mM Tris-HCl, 5% glycerol, 0.5 mM EDTA, 1 mM DTT, 4 C, 3 h; settings: protein: recombinant; tags: GST; label: 32P; blunt
GST-HOXB7, sequence (P09629 whole entry): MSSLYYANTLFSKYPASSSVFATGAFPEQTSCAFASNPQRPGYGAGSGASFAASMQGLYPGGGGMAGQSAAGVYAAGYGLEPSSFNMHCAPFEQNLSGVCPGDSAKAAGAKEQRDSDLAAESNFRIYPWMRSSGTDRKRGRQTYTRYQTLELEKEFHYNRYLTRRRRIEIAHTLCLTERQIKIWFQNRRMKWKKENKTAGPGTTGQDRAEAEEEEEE

PARP-1 (purified, Trevigen), sequence (P09874 whole entry): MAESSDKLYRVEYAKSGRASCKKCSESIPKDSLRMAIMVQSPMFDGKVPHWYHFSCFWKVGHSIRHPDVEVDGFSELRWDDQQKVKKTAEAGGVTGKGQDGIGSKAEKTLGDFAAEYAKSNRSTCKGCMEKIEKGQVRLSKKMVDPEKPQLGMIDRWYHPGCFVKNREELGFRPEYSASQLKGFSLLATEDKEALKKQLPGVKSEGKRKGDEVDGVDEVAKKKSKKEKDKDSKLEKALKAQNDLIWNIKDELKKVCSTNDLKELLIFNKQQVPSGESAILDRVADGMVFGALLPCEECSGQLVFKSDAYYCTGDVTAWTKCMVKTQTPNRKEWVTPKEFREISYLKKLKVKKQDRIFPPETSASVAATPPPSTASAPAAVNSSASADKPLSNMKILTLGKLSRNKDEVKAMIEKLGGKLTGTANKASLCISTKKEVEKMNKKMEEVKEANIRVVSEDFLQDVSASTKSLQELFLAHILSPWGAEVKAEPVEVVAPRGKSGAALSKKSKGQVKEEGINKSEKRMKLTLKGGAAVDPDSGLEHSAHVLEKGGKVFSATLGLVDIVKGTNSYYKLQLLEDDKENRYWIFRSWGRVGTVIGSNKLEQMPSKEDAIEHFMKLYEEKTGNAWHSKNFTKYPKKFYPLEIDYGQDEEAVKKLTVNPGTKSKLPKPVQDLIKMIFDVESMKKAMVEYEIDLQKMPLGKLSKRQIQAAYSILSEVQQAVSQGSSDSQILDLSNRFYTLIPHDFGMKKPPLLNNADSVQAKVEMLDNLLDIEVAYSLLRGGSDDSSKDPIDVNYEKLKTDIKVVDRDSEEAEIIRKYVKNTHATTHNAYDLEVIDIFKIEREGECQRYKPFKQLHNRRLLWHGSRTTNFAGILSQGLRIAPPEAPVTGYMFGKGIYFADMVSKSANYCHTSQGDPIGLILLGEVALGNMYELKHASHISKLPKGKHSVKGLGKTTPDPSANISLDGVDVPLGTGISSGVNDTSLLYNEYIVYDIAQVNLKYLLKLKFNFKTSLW

B1: HBS EMSA probe (dsDNA)
DNA 1: AAATATCAATTAAATCTTAATTATAA
DNA 2: TTATAATTAAGATTTAATTGATATTT
**Q.** Which results are given for B1?
**A.** binding result [1]: no binding; binding result (GST-HOXB7): binds
